The values below come from article doi:10.1101/830265, “Relationships between puroindoline-prolamin interactions and wheat grain hardness” (bioRxiv, 2019).

The target in experiment [1] is T1, puroindoline A (Triticum aestivum, UniProt P33432 29-148).
T1 construct: puroindoline A (PINA) of Triticum aestivum, purified from grain of cv; about 13 kDa, five disulfide bonds; matured by cleavages at both N- and C-termini, with forms that differ at the C-terminus; The Pina allele of cv; also called PINA; source: purified from the hard wheat Triticum aestivum cultivar Recital
T1 sequence (looked up): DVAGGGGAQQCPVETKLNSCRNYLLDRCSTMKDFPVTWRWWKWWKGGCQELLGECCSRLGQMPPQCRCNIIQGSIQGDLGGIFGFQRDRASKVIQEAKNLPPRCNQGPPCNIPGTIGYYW
Kind of experiment: SPR; same sensorgrams as the kinetic fit (immobilised (PQQPY)8, PINA 2 to 20 uM flowed, 25°C, Hepes buffer pH 7.4); steady-state fit, 1:1 Langmuir model. The following applies: both partners purified. Background: Surface plasmon resonance follows binding to a sensor surface in real time, without labels.

Experiment [2] concerns the target T1, puroindoline A. In words: SPR; Biacore X100, CM5 chip; gliadin or (PQQPY)8 covalently immobilised, PINA flowed at 10 uL/min, 25°C, Hepes buffer pH 7.4 (10 mM Hepes, 150 mM NaCl, 3.4 mM EDTA, 0.005% P20); global kinetic fit, 1:1 Langmuir model, KD=kd/ka. The following applies: both partners purified.

B1: recombinant polypeptide (PQQPY)8 (peptide)
chain: PQQPYPQQPYPQQPYPQQPYPQQPYPQQPYPQQPYPQQPY
notes: eight repeats of the pentapeptide PQQPY, written out from the printed formula (PQQPY)8; mimics the consensus repeat domain of gliadins; measured mass 4924.5 Da (theoretical 4924.3 Da); Released from thioredoxin-DP-(PQQPY)8 by formic acid; the printed theoretical mass of 4924.3 Da fits the 40 residues of eight repeats with no further residue; also called (Pro-Gln-Gln-Pro-Tyr)8; repetitive domain …
Turning to B1, the dissociation constant (Kd) was determined as 7.22 µM in the experiment with puroindoline A [1] and 0.29 µM with puroindoline A [2].

By Kd is commonly meant the concentration at which binding is half-saturated.
